Target: T1, human FcγRIIaR extracellular domain, C-terminal His-tag (human, UniProt P12318 34-217)
T1 construct: also called human FcγRIIa (type R); FcgRIIaR; not shown: His-tag added to C-terminus
T1 chain: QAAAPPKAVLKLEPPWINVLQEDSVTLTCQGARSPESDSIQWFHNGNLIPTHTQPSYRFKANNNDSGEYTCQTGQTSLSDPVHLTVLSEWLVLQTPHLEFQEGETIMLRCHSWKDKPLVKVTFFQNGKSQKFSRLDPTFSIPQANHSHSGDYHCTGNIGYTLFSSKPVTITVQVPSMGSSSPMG
Test: SPR (Biacore), KD of SG1 / KD of variant;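 note: relative to parent M103205H795-SG1 carrying the SG1 human heavy chain constant region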

- KD fold (SG1 = 1): 2.9 fold
B1: M103205H795-MY321/M103202L889-SK1 (antibody, human IgG1, kappa)
heavy: QVTLKESGPVLVKPTETLTLTCTVSGIDLSHDDISWVRQAPGKGLEWVGIISYAGSTYYASWAKGRLTISKDTSKNQVVLTMTNMDPVDTATYYCARGVPAYSHGGDLWGQGTLVTVSSASTKGPSVFPLAPSSKSTSGGTAALGCLVKDYFPEPVTVSWNSGALTSGVHTFPAVLQSSGLYSLSSVVTVPSSSLGTQTYICNVNHKPSNTKVDKKVEPKSCDKTHTCPPCPAPELLHGPSVFLFPPKPKDTLMISRTPEVTCVVVDVSDEDPEVKFNWYVDGVEVHNAKTKPREEQYNSTYRVVSVLTVLHQDWLNGKEYKCKVSNKALPKPIEKTISKAKGQPREPQVYTLPPSREEMTKNQVSLTCLVKGFYPSDIAVEWESNGQPENNYKTTPMVLDSDGSFFLYSKLTVDKSRWQQGNVFSCSVMHEALHNHYTQKSLSLSP
light: DIVMTQSPATLSLSPGERATLSCTSSQSVYHANWLSWFQQKPGQPPKLLIYWASTLAYGVPSRFSGSGSGTDFTLTISSLQPEDAATYYCAGGYGGGRYAFGQGTKVEIKRTVAAPSVFIFPPSDEQLKSGTASVVCLLNNFYPREAKVQWKVDNALQSGNSQESVTEQDSKDSTYSLSSTLTLSKADYEKHKVYACEVTHQGLSSPVTKSFNRGEC

From patent US20200317768A1 (published 2020)
